Changes are numbered by the printed parent chain. In names and notes the source's numbering stands.
T1: EsCas13d, nuclease-dead (Eubacterium siraeum, UniProt B0MS50, R295A;H300A;R849A;H854A)
T1 sequence: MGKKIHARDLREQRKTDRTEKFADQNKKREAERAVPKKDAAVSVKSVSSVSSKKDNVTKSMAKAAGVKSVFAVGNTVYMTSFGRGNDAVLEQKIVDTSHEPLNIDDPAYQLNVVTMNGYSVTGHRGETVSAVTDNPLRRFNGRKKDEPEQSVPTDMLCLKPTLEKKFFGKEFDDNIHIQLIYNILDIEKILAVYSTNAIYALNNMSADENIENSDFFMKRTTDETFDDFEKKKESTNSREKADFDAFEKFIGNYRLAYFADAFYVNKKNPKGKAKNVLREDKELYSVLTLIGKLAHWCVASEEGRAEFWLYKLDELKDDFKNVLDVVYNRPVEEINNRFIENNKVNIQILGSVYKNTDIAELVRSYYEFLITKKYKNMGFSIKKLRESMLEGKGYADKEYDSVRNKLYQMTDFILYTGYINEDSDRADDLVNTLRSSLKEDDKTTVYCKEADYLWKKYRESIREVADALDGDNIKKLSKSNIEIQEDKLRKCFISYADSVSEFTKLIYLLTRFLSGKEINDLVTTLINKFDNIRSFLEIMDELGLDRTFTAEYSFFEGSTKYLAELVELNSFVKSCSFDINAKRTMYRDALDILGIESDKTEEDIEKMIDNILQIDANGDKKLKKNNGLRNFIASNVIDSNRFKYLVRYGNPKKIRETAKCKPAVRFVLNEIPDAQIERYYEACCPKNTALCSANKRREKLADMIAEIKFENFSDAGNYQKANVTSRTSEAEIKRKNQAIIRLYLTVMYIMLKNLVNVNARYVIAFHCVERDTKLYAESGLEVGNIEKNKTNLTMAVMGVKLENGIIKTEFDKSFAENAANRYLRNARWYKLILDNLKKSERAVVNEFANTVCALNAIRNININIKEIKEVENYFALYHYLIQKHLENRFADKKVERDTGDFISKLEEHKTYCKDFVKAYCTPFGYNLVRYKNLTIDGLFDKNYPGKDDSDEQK

B1: target 2 MT 5'PFS UUU 3'PFS CUG (mixed)
RNA 1: CACCCGUGCAAAAUUGCAGGGGUCUAAAACCUUCUCCAAAUUGUUUCAUCCU
RNA 2: GGGAAUGGAUCCACAUCUACGAAUUCUUUAGGAUGAAACAAUUUGGAGAAGCUGAGAUCGGAAGAGCACACGU
B2: target 2 MT 5'PFS UGU 3'PFS AAC (mixed)
RNA 1: B1 RNA 1
RNA 2: B1 RNA 2 with U28G, C52A, U53A, G54C
B3: target 2 MT 5'PFS AUG 3'PFS AAU (mixed)
RNA 1: B1 RNA 1
RNA 2: B1 RNA 2 with U27A, U29G, C52A, U53A, G54U
B4: target 2 MT 5'PFS CUG 3'PFS AGU (mixed)
RNA 1: B1 RNA 1
RNA 2: B1 RNA 2 with U27C, U29G, C52A, U53G, G54U
B5: target 2 MT 5'PFS CGC 3'PFS UUU (mixed)
RNA 1: B1 RNA 1
RNA 2: B1 RNA 2 with U27C, U28G, U29C, C52U, G54U
B6: target 2 MT 5'PFS AUA 3'PFS AAA (mixed)
RNA 1: B1 RNA 1
RNA 2: B1 RNA 2 with U27A, U29A, C52A, U53A, G54A
B7: target 2 MT 5'PFS UUG 3'PFS CUU (mixed)
RNA 1: B1 RNA 1
RNA 2: B1 RNA 2 with U29G, G54U
B8: target 2 MT 5'PFS AUA 3'PFS AAC (mixed)
RNA 1: B1 RNA 1
RNA 2: B1 RNA 2 with U27A, U29A, C52A, U53A, G54C
B9: target 2 MT 5'PFS ACC 3'PFS CUC (mixed)
RNA 1: B1 RNA 1
RNA 2: B1 RNA 2 with U27A, U28C, U29C, G54C
B10: target 2 MT 5'PFS GUC 3'PFS CAC (mixed)
RNA 1: B1 RNA 1
RNA 2: B1 RNA 2 with U27G, U29C, U53A, G54C
B11: target 2 MT 5'PFS GCG 3'PFS ACG (mixed)
RNA 1: B1 RNA 1
RNA 2: B1 RNA 2 with U27G, U28C, U29G, C52A, U53C
B12: target 2 MT 5'PFS GCG 3'PFS UAU (mixed)
RNA 1: B1 RNA 1
RNA 2: B1 RNA 2 with U27G, U28C, U29G, C52U, U53A, G54U
B13: target 2 MT 5'PFS UUU 3'PFS CUU (mixed)
RNA 1: B1 RNA 1
RNA 2: B1 RNA 2 with G54U
B14: target 2 MT 5'PFS GUC 3'PFS ACU (mixed)
RNA 1: B1 RNA 1
RNA 2: B1 RNA 2 with U27G, U29C, C52A, U53C, G54U
B15: target 2 MT 5'PFS UUG 3'PFS AUC (mixed)
RNA 1: B1 RNA 1
RNA 2: B1 RNA 2 with U29G, C52A, G54C
B16: target 2 MT 5'PFS UUG 3'PFS AUU (mixed)
RNA 1: B1 RNA 1
RNA 2: B1 RNA 2 with U29G, C52A, G54U
B17: target 2 MT 5'PFS GUC 3'PFS ACG (mixed)
RNA 1: B1 RNA 1
RNA 2: B1 RNA 2 with U27G, U29C, C52A, U53C
B18: target 2 MT 5'PFS CGC 3'PFS CGU (mixed)
RNA 1: B1 RNA 1
RNA 2: B1 RNA 2 with U27C, U28G, U29C, U53G, G54U
B19: target 2 MT 5'PFS AUG 3'PFS AAA (mixed)
RNA 1: B1 RNA 1
RNA 2: B1 RNA 2 with U27A, U29G, C52A, U53A, G54A
B20: target 2 MT 5'PFS CGA 3'PFS ACA (mixed)
RNA 1: B1 RNA 1
RNA 2: B1 RNA 2 with U27C, U28G, U29A, C52A, U53C, G54A
B21: target 2 MT 5'PFS GUC 3'PFS ACA (mixed)
RNA 1: B1 RNA 1
RNA 2: B1 RNA 2 with U27G, U29C, C52A, U53C, G54A
B22: target 2 MT 5'PFS GUC 3'PFS CAA (mixed)
RNA 1: B1 RNA 1
RNA 2: B1 RNA 2 with U27G, U29C, U53A, G54A
B23: target 2 MT 5'PFS CGA 3'PFS ACC (mixed)
RNA 1: B1 RNA 1
RNA 2: B1 RNA 2 with U27C, U28G, U29A, C52A, U53C, G54C
B24: target 2 MT 5'PFS GUC 3'PFS CAG (mixed)
RNA 1: B1 RNA 1
RNA 2: B1 RNA 2 with U27G, U29C, U53A
B25: target 2 MT 5'PFS AUA 3'PFS AAG (mixed)
RNA 1: B1 RNA 1
RNA 2: B1 RNA 2 with U27A, U29A, C52A, U53A
B26: target 2 MT 5'PFS GUC 3'PFS ACC (mixed)
RNA 1: B1 RNA 1
RNA 2: B1 RNA 2 with U27G, U29C, C52A, U53C, G54C
B27: target 2 MT 5'PFS UUG 3'PFS AUG (mixed)
RNA 1: B1 RNA 1
RNA 2: B1 RNA 2 with U29G, C52A
B28: target 2 MT 5'PFS UUG 3'PFS AUA (mixed)
RNA 1: B1 RNA 1
RNA 2: B1 RNA 2 with U29G, C52A, G54A
B29: target 2 MT 5'PFS GCA 3'PFS CCG (mixed)
RNA 1: B1 RNA 1
RNA 2: B1 RNA 2 with U27G, U28C, U29A, U53C
B30: target 2 MT 5'PFS AUG 3'PFS AAC (mixed)
RNA 1: B1 RNA 1
RNA 2: B1 RNA 2 with U27A, U29G, C52A, U53A, G54C
B31: target 2 MT 5'PFS CGA 3'PFS ACG (mixed)
RNA 1: B1 RNA 1
RNA 2: B1 RNA 2 with U27C, U28G, U29A, C52A, U53C
B32: target 2 MT 5'PFS AUA 3'PFS AAU (mixed)
RNA 1: B1 RNA 1
RNA 2: B1 RNA 2 with U27A, U29A, C52A, U53A, G54U
B33: target 2 MT 5'PFS GCA 3'PFS CCA (mixed)
RNA 1: B1 RNA 1
RNA 2: B1 RNA 2 with U27G, U28C, U29A, U53C, G54A
B34: target 1 A14G,C22U (mixed)
RNA 1: CACCCGUGCAAAAAUGCAGGGGUCUAAAACUGAGCGGAUAACCUCUCUAUGG
RNA 2: GGGAAUGGAUCCACAUCUACGAAUUCGUAUCAUAGAGGGGUUAUCCGCUCACCGAGAUCGGAAGAGCACACGU
B35: target 1 C6U,A20U (mixed)
RNA 1: B34 RNA 1
RNA 2: B34 RNA 2 with U30C, A32U, G38A, C46U
B36: target 1 U3A,G13A (mixed)
RNA 1: B34 RNA 1
RNA 2: B34 RNA 2 with U30C, G38A, G39A, U49A
B37: target 1 insG 3' of 10,insA 3' of 3 (mixed)
RNA 1: B34 RNA 1
RNA 2: GGGAAUGGAUCCACAUCUACGAAUUCGUACCAUAGAGAGGUUGAUCCGCUACACCGAGAUCGGAAGAGCACACGU

target: T1, EsCas13d, nuclease-dead; assay: crRNA (strand 1, pre-loaded); Mg2+; 40 mM Tris-HCl pH 7.5, 150 mM NaCl, 6 mM MgCl2, 1 mM DTT, 0.1% Tween-20, 0.2 mg/ml BSA; 25 C; 10 min per concentration, then washed; details: tags: His6-TwinStrep-SUMO cleaved; N-terminal SNAP kept (SNAP-Surface 488); label: 3' end held by stalled T7 RNA polymerase

Binder	Kd [nM]
B1	7.7 ± 1
B2	24 ± 7
B3	7.6 ± 1
B4	3.7 ± 0.6
B5	17 ± 4
B6	5 ± 0.8
B7	15.9 ± 2.1
B8	5.2 ± 0.9
B9	7.4 ± 1.2
B10	13.4 ± 2.5
B11	14 ± 2.1
B12	14.9 ± 2.4
B13	8.9 ± 0.8
B14	20.5 ± 2.1
B15	14.1 ± 1.3
B16	11.9 ± 1
B17	16.1 ± 1.3
B18	3.5 ± 0.4
B19	7.8 ± 1.6

Binder	Kd [nM]
B20	10.8 ± 2.6
B21	18.5 ± 2.7
B22	9.8 ± 1.7
B23	~38
B24	17.9 ± 2.4
B25	5.9 ± 1.4
B26	28 ± 6
B27	13.1 ± 1.5
B28	9.4 ± 0.8
B29	10.3 ± 1.4
B30	18 ± 6
B31	6.9 ± 1
B32	8.6 ± 1.4
B33	~27
B34	~49
B35	35 ± 5
B36	7.7 ± 0.5
B37	45 ± 6

— article PMC10786891, “Massively parallel profiling of RNA-targeting CRISPR-Cas13d”
